From publication PMC5056995 come the findings set out here.

The target of data set [1] is T1, insulin receptor extracellular domain (EC-IR) (UniProt P06213 28-956). In words: filter binding with RT-qPCR. (In general: Quantitative PCR measures a nucleic acid by following its amplification.)
Data set [2] has as its target T1, insulin receptor extracellular domain …. In words: ELASA.

T1 sequence (P06213 28-956): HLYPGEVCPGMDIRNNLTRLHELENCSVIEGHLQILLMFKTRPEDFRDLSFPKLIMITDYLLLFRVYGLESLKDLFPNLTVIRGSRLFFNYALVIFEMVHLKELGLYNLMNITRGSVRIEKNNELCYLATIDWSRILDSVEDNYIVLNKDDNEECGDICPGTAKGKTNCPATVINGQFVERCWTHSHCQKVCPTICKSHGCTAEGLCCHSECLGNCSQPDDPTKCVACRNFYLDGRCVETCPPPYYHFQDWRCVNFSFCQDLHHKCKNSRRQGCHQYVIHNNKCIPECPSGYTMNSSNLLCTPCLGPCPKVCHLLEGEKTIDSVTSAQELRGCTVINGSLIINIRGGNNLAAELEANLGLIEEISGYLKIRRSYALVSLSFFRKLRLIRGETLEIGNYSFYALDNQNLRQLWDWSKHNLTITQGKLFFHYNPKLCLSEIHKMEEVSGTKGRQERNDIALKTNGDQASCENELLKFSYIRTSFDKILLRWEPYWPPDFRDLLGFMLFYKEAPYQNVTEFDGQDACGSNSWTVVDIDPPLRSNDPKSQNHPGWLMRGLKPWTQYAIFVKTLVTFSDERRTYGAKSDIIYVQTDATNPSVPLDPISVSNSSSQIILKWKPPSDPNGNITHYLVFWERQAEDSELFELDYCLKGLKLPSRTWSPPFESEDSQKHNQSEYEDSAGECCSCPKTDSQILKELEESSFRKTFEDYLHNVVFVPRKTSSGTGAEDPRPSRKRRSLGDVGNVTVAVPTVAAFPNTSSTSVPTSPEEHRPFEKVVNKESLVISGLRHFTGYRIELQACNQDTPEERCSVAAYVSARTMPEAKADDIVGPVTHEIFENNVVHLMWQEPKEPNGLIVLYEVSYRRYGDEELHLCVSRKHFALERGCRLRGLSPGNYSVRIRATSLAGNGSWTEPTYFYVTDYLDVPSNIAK

B1: GL56 (seq5/Gi-2) (XNA)
RNA: GGAGACAAGAAUAAACGCUCAAUGAUUUUGCAGCACUUCUUGUUAUCUUAACGAACUGUUGAUGAUUCGACAGGAGGCUCACAACAGGC
modifications: 2'-fluoro pyrimidines (all C and U), RNA purines
On to B1, for which the binding result in data set [1] is “binds”.

B2: GL56 5'-biotin (printed as GL56.T in ELASA methods) (XNA)
RNA: GGAGACAAGAAUAAACGCUCAAUGAUUUUGCAGCACUUCUUGUUAUCUUAACGAACUGUUGAUGAUUCGACAGGAGGCUCACAACAGGC
modifications: 2'-fluoro pyrimidines (all C and U), RNA purines
Consider B2, for which the binding result in data set [2] is recorded as “binds”.
